Source: publication PMC13316013, “Shared structural mechanisms of alternating access between the secondary peptide transporter SbmA and ABC transporters” (Nature Communications, 2026)

Columns and labels:
SbmA [1] = target: T1, SbmA (Escherichia coli, UniProt P0AFY6); assay: cryo-EM structure; SbmA incubated with SB2 in a 1:2 molar ratio, 30 min, 4 °C; complex purified by SEC in TBS pH 7.4, 0.05% DDM; 200 kV (Table 1 names lipid nanodiscs for identifier D); settings: both partners purified
T1 construct: SbmA, inner membrane peptide transporter of Escherichia coli, cloned from genomic DNA into pBXC3H; Homodimer; no cleavage is described; also called SbmA-like peptide transporter (SLiPT) family member; source: E. coli MC1061, purified (Nickel Sepharose, SEC) in DDM; for some samples reconstituted into MSP1E3D1 lipid nanodiscs

SbmA [2] = target: T1, SbmA; assay: as above; settings: both partners purified; remark: listed apart in the source
SbmA [3] = target: T1, SbmA; assay: cryo-EM structure; SbmA in complex with Fab S11-1 in lipid nanodiscs (MSP1E3D1; DOPC:POPG:POPO-cardiolipin 13:4:1), SEC in 20 mM MES pH 5.5, 300 KCl; 300 kV; settings: both partners purified
[4] = target: the molecule itself; assay: as above

B1: Sybody2 (VHH)
VHH: QVQLVESGGGLVQAGGSLRLSCAASGFPVIANVMYWYRQAPGKEREWVAAIDSSGEYAYYADSVKGRFTISRDNAKNTVYLQMNSLKPEDTAVYYCYVKVGSHYWGQGTQVTVSA
notes: synthetic nanobody (sybody, 16 kDa) selected against biotinylated SbmA T403C; also called SB2; Sb2
stoichiometry N (SbmA [1]): 2 Sb per SbmA dimer | stoichiometry N (SbmA [2]): 1 sybody per SbmA dimer

B2: Fab fragment Fab S11-1 (Fab, V domains shown)
VH: LKLLDSGAELVKPGASVKLSCTASGFNIKDTYMYWVKQRPDQGLEWIGRIDPANGNSKYDPKFQGKATITADTSSNTAYLQVSSLTSEDTAVYYCARWLVRGRRGTMDYWGQGTSVTVSS
VL: DIVMTQSPAILSASPGEKVTMTCRASSSVSYMHWYQQKPGSSPKPWIYATSNLASGVPARFSGSGSGTSYSLTISRVEAEDAATYYCQQWSSNPRTFGGGTKLEIK
stoichiometry N (SbmA [3]): 1 Fab per SbmA dimer

B3: SbmA (natural protein, Escherichia coli)
chain: MFKSFFPKPGTFFLSAFVWALIAVIFWQAGGGDWVARITGASGQIPISAARFWSLDFLIFYAYYIVCVGLFALFWFIYSPHRWQYWSILGTALIIFVTWFLVEVGVAVNAWYAPFYDLIQTALSSPHKVTIEQFYREVGVFLGIALIAVVISVLNNFFVSHYVFRWRTAMNEYYMANWQQLRHIEGAAQRVQEDTMRFASTLENMGVSFINAIMTLIAFLPVLVTLSAHVPELPIIGHIPYGLVIAAIVWSLMGTGLLAVVGIKLPGLEFKNQRVEAAYRKELVYGEDDATRATPPTVRELFSAVRKNYFRLYFHYMYFNIARILYLQVDNVFGLFLLFPSIVAGTITLGLMTQITNVFGQVRGAFQYLINSWTTLVELMSIYKRLRSFEHELDGDKIQEVTHTLS
notes: SbmA, inner membrane peptide transporter of Escherichia coli, cloned from genomic DNA into pBXC3H; Homodimer; no cleavage is described; also called SbmA-like peptide transporter (SLiPT) family member; source: E. coli MC1061, purified (Nickel Sepharose, SEC) in DDM; for some samples reconstituted into MSP1E3D1 lipid nanodiscs
stoichiometry N [4]: 2
